Assay results: patent US20250011869A1, “TLR3 INHIBITORS FOR USE IN THE TREATMENT OF DISEASES ASSOCIATED WITH CARDIOVASCULAR CALCIFICATION” (priority 2021, published 2025)

Biological target: T1, human TLR3 ectodomain (huTLR3-ECD) (Homo sapiens, UniProt O15455)
T1 construct: The human TLR3-ECD (27-700) was modified with an N-terminal gb67 leader and a C-terminal 6× poly histidine tag; gb67 (gp67) secretion leader (N); 6xHis (C); made in house; host or cells: Sf21 insect cells (baculovirus, pFastBac1, Bac-to-Bac)
Test: In vitro binding by co-immunoprecipitation
Conditions: purified TLR3 ectodomain and purified BGN
Procedure: The human TLR3-ECD (27-700) was modified with an N-terminal gb67 leader and a C-terminal 6× poly histidine tag and the sequence was produced synthetically (Geneart) and cloned into a pFastBac1 vector. The virus was generated and amplified at large scale levels using a Sf21 insect cell-line (Bac-to-Bac®). One liter Sf21 cell culture was infected and harvested at 72 hours. The culture was centrifuged at 1000×g for 30 min and the supernatant was filtered through a 0.2 μm nitrocellulose membrane. The filtrate was loaded onto a 5 ml His Trap EXCEL column (GE, 17-3712-06) using a peristaltic pump. […] The protein fractions were analyzed by SDS-PAGE and TLR3 containing fractions were pooled and concentrated to a final volume of ˜500 μl using a spin concentrator (Vivaspin®20) with a 10 kDa molecular weight cut-off. […] TLR3 containing fractions were analyzed by SDS-PAGE and pooled and concentrated to 1 mg/ml. Protein concentration was estimated using a Nano Drop by measuring the absorbance at 280 nm (MW=[…], ε=61.9 mol^−1 cm^−1).
The human BGN (38-368) was modified with an N-terminal Secrecon tag followed by a 6× poly histidine tag and a Strep-Tag II. […] The protein fractions were analyzed by SDS-PAGE and BGN containing fractions were pooled and concentrated to a final volume of ˜500 μl using a spin concentrator (Vivaspin®20) with a 10 kDa molecular weight cut-off. […]

interaction with huTLR3-ECD by immunoprecipitation: confirmed this interaction
B1: BGN: proteoglycan biglycan (BGN), a structural protein of the extracellular matrix (ECM) (protein)
chain: DEEASGAETTSGIPDLDSLPPTYSAMCPFGCHCHLRVVQCSDLGLKAVPKEISPDTTLLDLQNNDISELRKDDFKGLQHLYALVLVNNKISKIHEKAFSPLRKLQKLYISKNHLVEIPPNLPSSLVELRIHDNRIRKVPKGVFSGLRNMNCIEMGGNPLENSGFEPGAFDGLKLNYLRISEAKLTGIPKDLPETLNELHLDHNKIQAIELEDLLRYSKLYRLGLGHNQIRMIENGSLSFLPTLRELHLDNNKLSRVPAGLPDLKLLQVVYLHTNNITKVGVNDFCPVGFGVKRAYYNGISLFNNPVPYWEVQPATFRCVTDRLAIQFGNYKK
